Experimental findings from article PMC4982137, “Mycobacterium tuberculosis H37Ra: a surrogate for the expression of conserved, multimeric proteins of M.tb H37Rv” (Microbial Cell Factories, 2016) are described below.

Data set [1] has as its target MT-H-Eno (M.tb H37Rv Enolase) (Mycobacterium tuberculosis, UniProt P9WNL1).
For data set [2], the target named is T1, MT-PykA-H (M.tb H37Rv PykA) (Mycobacterium tuberculosis, UniProt P9WKE5).
T1 construct: gene pyk

The target in data set [3] is transferrin-biotin (human) (UniProt P02787). Kind of data set: pull-down.
The test system of another data set is O=C[C@H](O)COP(=O)(O)O. Kind of data set: purified protein. Conditions: pH 8.5; 25.0 °C.
Data set [4] deals with NC(=O)c1ccc[n+]([C@@H]2O[C@H](COP(=O)(O)OP(=O)(O)OC[C@H]3O[C@@H](n4cnc5c(N)ncnc54)[C@H](O)[C@@H]3O)[C@@H](O)[C@H]2O)c1. Kind of data set: purified protein. Conditions: pH 8.5; 25.0 °C.

Where a name gives a salt, the structure may show the parent alone.

transferrin-biotin (human), sequence (P02787 20-698): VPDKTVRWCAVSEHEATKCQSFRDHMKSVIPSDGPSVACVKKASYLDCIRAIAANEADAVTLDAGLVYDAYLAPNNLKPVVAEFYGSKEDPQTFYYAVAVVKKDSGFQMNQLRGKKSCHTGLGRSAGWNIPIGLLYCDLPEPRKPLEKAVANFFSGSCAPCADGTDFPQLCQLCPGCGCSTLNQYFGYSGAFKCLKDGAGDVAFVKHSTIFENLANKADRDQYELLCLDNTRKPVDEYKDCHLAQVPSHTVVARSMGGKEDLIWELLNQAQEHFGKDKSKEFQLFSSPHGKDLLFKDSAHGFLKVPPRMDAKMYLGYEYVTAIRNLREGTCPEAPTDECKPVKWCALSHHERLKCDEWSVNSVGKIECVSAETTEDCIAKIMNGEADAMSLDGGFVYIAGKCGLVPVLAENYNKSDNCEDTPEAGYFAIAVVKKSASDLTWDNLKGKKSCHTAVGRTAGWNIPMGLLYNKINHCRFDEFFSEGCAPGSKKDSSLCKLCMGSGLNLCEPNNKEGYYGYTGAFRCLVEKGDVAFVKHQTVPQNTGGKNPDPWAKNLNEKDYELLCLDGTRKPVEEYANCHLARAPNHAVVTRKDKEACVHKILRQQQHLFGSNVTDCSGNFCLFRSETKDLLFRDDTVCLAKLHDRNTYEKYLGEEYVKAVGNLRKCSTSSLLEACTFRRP
MT-H-Eno (M.tb H37Rv Enolase), sequence (P9WNL1 whole entry, looked up): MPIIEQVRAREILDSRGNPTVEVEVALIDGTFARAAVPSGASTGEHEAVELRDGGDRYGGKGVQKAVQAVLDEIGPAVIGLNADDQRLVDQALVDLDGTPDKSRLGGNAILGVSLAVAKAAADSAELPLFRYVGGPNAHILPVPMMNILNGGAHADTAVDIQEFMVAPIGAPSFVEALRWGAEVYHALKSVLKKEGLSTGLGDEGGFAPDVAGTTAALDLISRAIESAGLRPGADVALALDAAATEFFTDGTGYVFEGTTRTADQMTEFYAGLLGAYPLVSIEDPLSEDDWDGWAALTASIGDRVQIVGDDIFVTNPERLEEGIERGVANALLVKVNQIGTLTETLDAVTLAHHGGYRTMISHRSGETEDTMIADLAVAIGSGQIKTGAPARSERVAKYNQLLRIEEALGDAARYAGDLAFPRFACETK
T1 sequence (P9WKE5 whole entry, looked up): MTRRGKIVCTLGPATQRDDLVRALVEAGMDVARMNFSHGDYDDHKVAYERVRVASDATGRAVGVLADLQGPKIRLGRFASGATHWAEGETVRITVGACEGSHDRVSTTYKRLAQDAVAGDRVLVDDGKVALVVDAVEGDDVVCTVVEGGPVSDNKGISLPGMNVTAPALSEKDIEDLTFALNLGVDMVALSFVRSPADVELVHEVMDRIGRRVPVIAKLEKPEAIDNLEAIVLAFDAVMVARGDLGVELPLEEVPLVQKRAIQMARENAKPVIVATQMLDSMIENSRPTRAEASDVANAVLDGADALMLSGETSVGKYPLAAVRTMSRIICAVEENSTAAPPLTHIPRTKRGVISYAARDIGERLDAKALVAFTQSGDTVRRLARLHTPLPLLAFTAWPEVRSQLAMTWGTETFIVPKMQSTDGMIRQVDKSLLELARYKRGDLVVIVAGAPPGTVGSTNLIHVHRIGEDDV

On to `O=C(O)[C@@H](CO)OP(=O)(O)O` [D (+)-2 phosphoglyceric acid sodium salt], for which the “absorbance increase at 240 nm” value in data set [1] is reported as “buffer lacking the specific substrate 2-PG”.

In the case of `C=C(OP(=O)(O)O)C(=O)O` [sodium phosphoenol pyruvate], in data set [2], the “lactate dehydrogenase-coupled NADH oxidation at 340 nm” value is reported as “buffer lacking the specific substrate sodium phosphoenol pyruvate”. The molecule “EC-H-GAPDH: recombinant M.tb H37Rv GAPDH with an N-terminal His tag, expressed in E. coli (from UniProt P9WN83 1-339) (enzyme)” gave a percent decrease of binding against MT-GAPDH-H (densitometry) in data set [3] of 70%.

For the molecule “MT-GAPDH-H (M.tb rGAPDH) (Mycobacterium tuberculosis H37Rv)”, the Km – broadly, the concentration of substrate that gives half-maximal velocity – was 169.6 ± 10.53 µM in the data set on O=C[C@H](O)COP(=O)(O)O and 101.2 ± 8.9 µM in data set [4]. In addition, the kcat (in general, the number of substrate molecules converted per active site and unit of time at saturation) with O=C[C@H](O)COP(=O)(O)O was 0.00332 ± 0.0002 s⁻¹.
